Assay [1] concerns the target T1, TGF-β1 (UniProt P01137 279-390). In words: cell-based or functional assay.
The target of assay [2] is T1, TGF-β1. Description: SPR (Biacore); amine-coupled TGF-β1 on chip, antibody as analyte, kinetic fit. An excerpt: Recombinant mAb1-D10 fusion variants of Example 7 were also quantitatively assessed for TGF-β1 binding using surface plasmon resonance (SPR) as detected by Biacore. Samples containing purified variants were passed over a sensor chip with amine-coupled TGF-β1 to determine the equilibrium constant, KD. A target immobilization level of less than 100 response units (RU) of TGF-β1 was chosen to minimize the potential for avidity effects arising from binding adjacent TGF-β1 molecules on the chip. The level of immobilization was determined by the change in response units after NHS/EDC activation of the chip surface, but before quenching with ethanolamine. The fusion variants, WT fusion variant F1, and mAb1 control were diluted to 30, 10, 3, 1 and 0.37 nM in HBS-EP buffer and passed over the TGF-β1 chip at 30 μL/min for 3 min, followed by 5 min dissociation in the same buffer. Between runs, the chip surface was regenerated to remove any bound antibody by passing two 30 sec injections of 40 mM HCl over the chip at a flow rate of 75 μL/min. […] Unexpectedly, the maximum signal (RU) elicited by the fusion variants decreased with increasing number of peptides, with variant F17 (D10-HC-D10/D10-LC, PAR=6) showing the lowest signal. […] A possible explanation of this decline may reflect electrostatic repulsion between the chip matrix (carboxymethyl dextran) and the negatively charged D10 peptides.

Assay [3] deals with T1, TGF-β1. Description: cell-based or functional assay. This is another data set of the same source.

Usually Kd stands for the equilibrium constant for the complex coming apart. A high value points to lower affinity. The koff is a measure of how fast the partners let go of each other. A higher koff goes with a short-lived complex. One may read the kon as a measure of how fast the partners come together. Read a high kon as faster complex formation.

Like-named read-outs stand apart in the source and are kept apart here.

T1 sequence (P01137 279-390 limits assumed): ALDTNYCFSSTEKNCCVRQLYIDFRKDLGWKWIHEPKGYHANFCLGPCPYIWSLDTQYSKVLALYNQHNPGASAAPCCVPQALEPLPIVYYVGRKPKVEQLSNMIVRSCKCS

B1: mAb1 F7 (antibody, mouse IgG1, kappa)
heavy: HVQLQQSGPELVRPGASVKLSCKASGYIFITYWMNWVKQRPGQGLEWIGQIFPASGSTNYNEMFEGKATLTVDTSSSTAYMQLSSLTSEDSAVYYCARGDGNYALDAMDYWGQGTSVTVSSAKTTPPSVYPLAPGSAAQTNSMVTLGCLVKGYFPEPVTVTWNSGSLSSGVHTFPAVLQSDLYTLSSSVTVPSSTWPSQTVTCNVAHPASSTKVDKKIVPRDCGCKPCICTVPEVSSVFIFPPKPKDVLTITLTPKVTCVVVDISKDDPEVQFSWFVDDVEVHTAQTKPREEQFNSTFRSVSELPIMHQDWLNGKEFKCRVNSAAFPAPIEKTISKTKGRPKAPQVYTIPPPKEQMAKDKVSLTCMITDFFPEDITVEWQWNGQPAENYKNTQPIMDTDGSYFVYSKLNVQKSNWEAGNTFTCSVLHEGLHNHHTEKSLSHSPGKDDDDDDDDDD
light: DDDDDDDDDDNIVLTQSPASLAVSLGQRATISCRASESVDSYGNSFMHWYQQKSGQPPKLLIYLASNLESGVPARFSGSGSRTDFTLTIDPVEADDAATYYCQQNNEDPLTFGAGTKLELKRADAAPTVSIFPPSSEQLTSGGASVVCFLNNFYPKDINVKWKIDGSERQNGVLNSWTDQDSKDSTYSMSSTLTLTKDEYERHNSYTCEATHKTSTSPIVKSFNRNEC
notes: Mouse IgG1 fusion variant, PAR 4; also called HC-D10: D10-LC
B1: in the assay with TGF-β1 [1], the “IC50 (read off the curve); IL-11 release by A549 cells in response to TGF-β1” value (from here on “IC50 (read off the curve); IL-11 release”) is about 0.08 nM. Moreover, in the assay with TGF-β1 [2], binding was put at a Kd of 5.43 nM, the koff amounted to 0.00094 s⁻¹ and the kon worked out at 172000 M⁻¹ s⁻¹.

B2: mAb1 F12 (antibody, mouse IgG1, kappa)
heavy: DDDDDDDDDDHVQLQQSGPELVRPGASVKLSCKASGYIFITYWMNWVKQRPGQGLEWIGQIFPASGSTNYNEMFEGKATLTVDTSSSTAYMQLSSLTSEDSAVYYCARGDGNYALDAMDYWGQGTSVTVSSAKTTPPSVYPLAPGSAAQTNSMVTLGCLVKGYFPEPVTVTWNSGSLSSGVHTFPAVLQSDLYTLSSSVTVPSSTWPSQTVTCNVAHPASSTKVDKKIVPRDCGCKPCICTVPEVSSVFIFPPKPKDVLTITLTPKVTCVVVDISKDDPEVQFSWFVDDVEVHTAQTKPREEQFNSTFRSVSELPIMHQDWLNGKEFKCRVNSAAFPAPIEKTISKTKGRPKAPQVYTIPPPKEQMAKDKVSLTCMITDFFPEDITVEWQWNGQPAENYKNTQPIMDTDGSYFVYSKLNVQKSNWEAGNTFTCSVLHEGLHNHHTEKSLSHSPGK
light: DDDDDDDDDDNIVLTQSPASLAVSLGQRATISCRASESVDSYGNSFMHWYQQKSGQPPKLLIYLASNLESGVPARFSGSGSRTDFTLTIDPVEADDAATYYCQQNNEDPLTFGAGTKLELKRADAAPTVSIFPPSSEQLTSGGASVVCFLNNFYPKDINVKWKIDGSERQNGVLNSWTDQDSKDSTYSMSSTLTLTKDEYERHNSYTCEATHKTSTSPIVKSFNRNEC
notes: Mouse IgG1 fusion variant, PAR 4; also called D10-HC: D10-LC
In the assay with TGF-β1 [2], B2 gave a dissociation constant Kd of 5.41 nM, a dissociation rate constant (koff) of 0.00093 s⁻¹ and an on-rate (kon) of 171000 M⁻¹ s⁻¹. For the same molecule, the “IC50 (read off the curve); IL-11 release” value with TGF-β1 [3] was about 0.03 nM.

B3: mAb1 F1 (antibody, mouse IgG1, kappa)
heavy: HVQLQQSGPELVRPGASVKLSCKASGYIFITYWMNWVKQRPGQGLEWIGQIFPASGSTNYNEMFEGKATLTVDTSSSTAYMQLSSLTSEDSAVYYCARGDGNYALDAMDYWGQGTSVTVSSAKTTPPSVYPLAPGSAAQTNSMVTLGCLVKGYFPEPVTVTWNSGSLSSGVHTFPAVLQSDLYTLSSSVTVPSSTWPSQTVTCNVAHPASSTKVDKKIVPRDCGCKPCICTVPEVSSVFIFPPKPKDVLTITLTPKVTCVVVDISKDDPEVQFSWFVDDVEVHTAQTKPREEQFNSTFRSVSELPIMHQDWLNGKEFKCRVNSAAFPAPIEKTISKTKGRPKAPQVYTIPPPKEQMAKDKVSLTCMITDFFPEDITVEWQWNGQPAENYKNTQPIMDTDGSYFVYSKLNVQKSNWEAGNTFTCSVLHEGLHNHHTEKSLSHSPGK
light: NIVLTQSPASLAVSLGQRATISCRASESVDSYGNSFMHWYQQKSGQPPKLLIYLASNLESGVPARFSGSGSRTDFTLTIDPVEADDAATYYCQQNNEDPLTFGAGTKLELKRADAAPTVSIFPPSSEQLTSGGASVVCFLNNFYPKDINVKWKIDGSERQNGVLNSWTDQDSKDSTYSMSSTLTLTKDEYERHNSYTCEATHKTSTSPIVKSFNRNEC
notes: Recombinant version of mAb1 without D10 peptide, mouse IgG1, PAR 0; also called Fusion 1; WT
Consider B3, for which, in the assay with TGF-β1 [1], the “IC50 (read off the curve); IL-11 release” value was about 0.2 nM. Moreover, in the assay with TGF-β1 [2], the Kd is 2.51 nM, the koff came out at 0.00085 s⁻¹ and the kon was 338000 M⁻¹ s⁻¹.

B4: mAb1 F6 (antibody, mouse IgG1, kappa)
heavy: HVQLQQSGPELVRPGASVKLSCKASGYIFITYWMNWVKQRPGQGLEWIGQIFPASGSTNYNEMFEGKATLTVDTSSSTAYMQLSSLTSEDSAVYYCARGDGNYALDAMDYWGQGTSVTVSSAKTTPPSVYPLAPGSAAQTNSMVTLGCLVKGYFPEPVTVTWNSGSLSSGVHTFPAVLQSDLYTLSSSVTVPSSTWPSQTVTCNVAHPASSTKVDKKIVPRDCGCKPCICTVPEVSSVFIFPPKPKDVLTITLTPKVTCVVVDISKDDPEVQFSWFVDDVEVHTAQTKPREEQFNSTFRSVSELPIMHQDWLNGKEFKCRVNSAAFPAPIEKTISKTKGRPKAPQVYTIPPPKEQMAKDKVSLTCMITDFFPEDITVEWQWNGQPAENYKNTQPIMDTDGSYFVYSKLNVQKSNWEAGNTFTCSVLHEGLHNHHTEKSLSHSPGKDDDDDDDDDD
light: NIVLTQSPASLAVSLGQRATISCRASESVDSYGNSFMHWYQQKSGQPPKLLIYLASNLESGVPARFSGSGSRTDFTLTIDPVEADDAATYYCQQNNEDPLTFGAGTKLELKRADAAPTVSIFPPSSEQLTSGGASVVCFLNNFYPKDINVKWKIDGSERQNGVLNSWTDQDSKDSTYSMSSTLTLTKDEYERHNSYTCEATHKTSTSPIVKSFNRNEC
notes: Mouse IgG1 fusion variant, PAR 2; also called HC-D10: WT-LC; mAb1-D10
Regarding B4, the “IC50 (read off the curve); IL-11 release” value with TGF-β1 [1] was about 0.2 nM. For the same molecule, in the assay with TGF-β1 [2], binding was characterised by a dissociation constant (Kd) of 4.58 nM, the koff turned out to be 0.00084 s⁻¹ and the association rate constant (kon) stood at 182000 M⁻¹ s⁻¹.

B5: mAb1 F2 (antibody, mouse IgG1, kappa)
heavy: HVQLQQSGPELVRPGASVKLSCKASGYIFITYWMNWVKQRPGQGLEWIGQIFPASGSTNYNEMFEGKATLTVDTSSSTAYMQLSSLTSEDSAVYYCARGDGNYALDAMDYWGQGTSVTVSSAKTTPPSVYPLAPGSAAQTNSMVTLGCLVKGYFPEPVTVTWNSGSLSSGVHTFPAVLQSDLYTLSSSVTVPSSTWPSQTVTCNVAHPASSTKVDKKIVPRDCGCKPCICTVPEVSSVFIFPPKPKDVLTITLTPKVTCVVVDISKDDPEVQFSWFVDDVEVHTAQTKPREEQFNSTFRSVSELPIMHQDWLNGKEFKCRVNSAAFPAPIEKTISKTKGRPKAPQVYTIPPPKEQMAKDKVSLTCMITDFFPEDITVEWQWNGQPAENYKNTQPIMDTDGSYFVYSKLNVQKSNWEAGNTFTCSVLHEGLHNHHTEKSLSHSPGK
light: DDDDDDDDDDNIVLTQSPASLAVSLGQRATISCRASESVDSYGNSFMHWYQQKSGQPPKLLIYLASNLESGVPARFSGSGSRTDFTLTIDPVEADDAATYYCQQNNEDPLTFGAGTKLELKRADAAPTVSIFPPSSEQLTSGGASVVCFLNNFYPKDINVKWKIDGSERQNGVLNSWTDQDSKDSTYSMSSTLTLTKDEYERHNSYTCEATHKTSTSPIVKSFNRNEC
notes: Mouse IgG1 fusion variant, PAR 2; also called WT-HC: D10-LC
Take B5: the “IC50 (read off the curve); IL-11 release” value with TGF-β1 [1] was about 0.2 nM. For the same molecule, in the assay with TGF-β1 [2], binding was put at a Kd of 6.01 nM, the off-rate constant (koff) was 0.001 s⁻¹ and the kon amounted to 166000 M⁻¹ s⁻¹.

B6: mAb1 F11 (antibody, mouse IgG1, kappa)
heavy: DDDDDDDDDDHVQLQQSGPELVRPGASVKLSCKASGYIFITYWMNWVKQRPGQGLEWIGQIFPASGSTNYNEMFEGKATLTVDTSSSTAYMQLSSLTSEDSAVYYCARGDGNYALDAMDYWGQGTSVTVSSAKTTPPSVYPLAPGSAAQTNSMVTLGCLVKGYFPEPVTVTWNSGSLSSGVHTFPAVLQSDLYTLSSSVTVPSSTWPSQTVTCNVAHPASSTKVDKKIVPRDCGCKPCICTVPEVSSVFIFPPKPKDVLTITLTPKVTCVVVDISKDDPEVQFSWFVDDVEVHTAQTKPREEQFNSTFRSVSELPIMHQDWLNGKEFKCRVNSAAFPAPIEKTISKTKGRPKAPQVYTIPPPKEQMAKDKVSLTCMITDFFPEDITVEWQWNGQPAENYKNTQPIMDTDGSYFVYSKLNVQKSNWEAGNTFTCSVLHEGLHNHHTEKSLSHSPGK
light: NIVLTQSPASLAVSLGQRATISCRASESVDSYGNSFMHWYQQKSGQPPKLLIYLASNLESGVPARFSGSGSRTDFTLTIDPVEADDAATYYCQQNNEDPLTFGAGTKLELKRADAAPTVSIFPPSSEQLTSGGASVVCFLNNFYPKDINVKWKIDGSERQNGVLNSWTDQDSKDSTYSMSSTLTLTKDEYERHNSYTCEATHKTSTSPIVKSFNRNEC
notes: Mouse IgG1 fusion variant, PAR 2; also called D10-HC: WT-LC
For B6, in the assay with TGF-β1 [2], the Kd is 5.62 nM, the koff was 0.00092 s⁻¹ and the association rate constant (kon) was found to be 164000 M⁻¹ s⁻¹. Besides, the “IC50 (read off the curve); IL-11 release” value in the assay with TGF-β1 [3] was about 0.07 nM.

B7: mAb1 F16 (antibody, mouse IgG1, kappa)
heavy: DDDDDDDDDDHVQLQQSGPELVRPGASVKLSCKASGYIFITYWMNWVKQRPGQGLEWIGQIFPASGSTNYNEMFEGKATLTVDTSSSTAYMQLSSLTSEDSAVYYCARGDGNYALDAMDYWGQGTSVTVSSAKTTPPSVYPLAPGSAAQTNSMVTLGCLVKGYFPEPVTVTWNSGSLSSGVHTFPAVLQSDLYTLSSSVTVPSSTWPSQTVTCNVAHPASSTKVDKKIVPRDCGCKPCICTVPEVSSVFIFPPKPKDVLTITLTPKVTCVVVDISKDDPEVQFSWFVDDVEVHTAQTKPREEQFNSTFRSVSELPIMHQDWLNGKEFKCRVNSAAFPAPIEKTISKTKGRPKAPQVYTIPPPKEQMAKDKVSLTCMITDFFPEDITVEWQWNGQPAENYKNTQPIMDTDGSYFVYSKLNVQKSNWEAGNTFTCSVLHEGLHNHHTEKSLSHSPGKDDDDDDDDDD
light: NIVLTQSPASLAVSLGQRATISCRASESVDSYGNSFMHWYQQKSGQPPKLLIYLASNLESGVPARFSGSGSRTDFTLTIDPVEADDAATYYCQQNNEDPLTFGAGTKLELKRADAAPTVSIFPPSSEQLTSGGASVVCFLNNFYPKDINVKWKIDGSERQNGVLNSWTDQDSKDSTYSMSSTLTLTKDEYERHNSYTCEATHKTSTSPIVKSFNRNEC
notes: Mouse IgG1 fusion variant, PAR 4; also called D10-HC-D10: WT-LC
For the molecule B7, in the assay with TGF-β1 [2], the equilibrium dissociation constant (Kd) came out at 6.88 nM, the koff stood at 0.0011 s⁻¹ and the association rate constant (kon) came to 159000 M⁻¹ s⁻¹. Besides, the “IC50 (read off the curve); IL-11 release” value with TGF-β1 [3] was about 0.02 nM.

The values above are taken from patent publication US20210163584A1 (Sanofi, published 2021).
